Assay results reported in patent publication US20180155451A1 (published 2018).

T1: FcγRIIa R (human, UniProt P12318 34-217)
T1 construct: extracellular domain; Soluble extracellular domain with C-terminal His tag, expressed in FreeStyle293 cells; also called FcgRIIa R; FcγRIIa type R; not shown: His tag attached to the C terminus
T1 sequence (looked up): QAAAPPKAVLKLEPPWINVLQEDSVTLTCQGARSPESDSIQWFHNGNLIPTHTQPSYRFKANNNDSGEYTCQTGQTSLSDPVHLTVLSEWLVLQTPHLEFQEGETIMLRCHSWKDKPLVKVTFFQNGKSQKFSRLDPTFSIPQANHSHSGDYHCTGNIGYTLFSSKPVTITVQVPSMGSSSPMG

B1: GpH7-B3 variant T335_16H/GpL16-k0 (antibody, human IgG1, kappa)
heavy: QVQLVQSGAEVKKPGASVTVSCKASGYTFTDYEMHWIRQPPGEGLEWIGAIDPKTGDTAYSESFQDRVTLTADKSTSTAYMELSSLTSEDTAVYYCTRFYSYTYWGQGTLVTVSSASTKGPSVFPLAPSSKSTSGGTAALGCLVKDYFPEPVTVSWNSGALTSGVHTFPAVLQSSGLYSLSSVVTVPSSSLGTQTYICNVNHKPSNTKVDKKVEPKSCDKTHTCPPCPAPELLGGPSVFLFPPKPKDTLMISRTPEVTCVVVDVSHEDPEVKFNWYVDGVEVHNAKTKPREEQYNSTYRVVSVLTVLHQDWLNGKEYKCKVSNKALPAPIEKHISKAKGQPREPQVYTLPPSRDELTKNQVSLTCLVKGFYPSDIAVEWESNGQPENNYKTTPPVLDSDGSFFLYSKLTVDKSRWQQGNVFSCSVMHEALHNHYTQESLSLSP
light: DIVMTQSPLSLPVTPGEPASISCQASESLVHSNRNTYLHWYLQKPGQSPQLLIYKVSNRFSGVPDRFSGSGSGTDFTLKISRVEAEDVGVYYCSQNTHVPPTFGQGTKVEIERTVAAPSVFIFPPSDEQLKSGTASVVCLLNNFYPREAKVQWKVDNALQSGNSQESVTEQDSKDSTYSLSSTLTLSKADYEKHKVYACEVTHQGLSSPVTKSFNRGEC
notes: homodimerized; mutation in both H chains; also called Ho Ab
B2: GpH7-A5/GpH7-B3 variant T335_15Y/GpL16-k0 (antibody, human IgG1, kappa)
heavy 1: not shown
heavy 2: not shown
light: B1 light
notes: heterodimerized; mutation in one H chain only; also called He Ab
B3: GpH7-B3 variant T335_18N/GpL16-k0 (antibody, human IgG1, kappa)
heavy: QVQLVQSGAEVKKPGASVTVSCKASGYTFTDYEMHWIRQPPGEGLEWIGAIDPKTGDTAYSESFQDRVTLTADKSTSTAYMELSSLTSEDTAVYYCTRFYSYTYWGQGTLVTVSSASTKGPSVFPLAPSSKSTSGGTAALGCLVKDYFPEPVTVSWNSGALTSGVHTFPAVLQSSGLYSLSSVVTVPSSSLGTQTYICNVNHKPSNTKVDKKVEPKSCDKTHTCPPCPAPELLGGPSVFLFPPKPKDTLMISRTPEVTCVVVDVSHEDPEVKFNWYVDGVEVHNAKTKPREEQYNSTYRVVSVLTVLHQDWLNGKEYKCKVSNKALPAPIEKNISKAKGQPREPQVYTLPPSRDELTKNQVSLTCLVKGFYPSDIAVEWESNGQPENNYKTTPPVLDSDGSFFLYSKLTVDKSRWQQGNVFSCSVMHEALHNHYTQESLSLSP
light: B1 light
notes: as for B1
B4: GpH7-A5/GpH7-B3 variant H268_09D/GpL16-k0 (antibody, human IgG1, kappa)
heavy 1: not shown
heavy 2: not shown
light: B1 light
notes: as for B2
B5: GpH7-A5/GpH7-B3 variant T335_19Q/GpL16-k0 (antibody, human IgG1, kappa)
heavy 1: not shown
heavy 2: not shown
light: B1 light
notes: as for B2
B6: GpH7-A5/GpH7-B3 variant P238_08L/GpL16-k0 (antibody, human IgG1, kappa)
heavy 1: not shown
heavy 2: not shown
light: B1 light
notes: as for B2
B7: GpH7-B3 variant V266_06M/GpL16-k0 (antibody, human IgG1, kappa)
heavy: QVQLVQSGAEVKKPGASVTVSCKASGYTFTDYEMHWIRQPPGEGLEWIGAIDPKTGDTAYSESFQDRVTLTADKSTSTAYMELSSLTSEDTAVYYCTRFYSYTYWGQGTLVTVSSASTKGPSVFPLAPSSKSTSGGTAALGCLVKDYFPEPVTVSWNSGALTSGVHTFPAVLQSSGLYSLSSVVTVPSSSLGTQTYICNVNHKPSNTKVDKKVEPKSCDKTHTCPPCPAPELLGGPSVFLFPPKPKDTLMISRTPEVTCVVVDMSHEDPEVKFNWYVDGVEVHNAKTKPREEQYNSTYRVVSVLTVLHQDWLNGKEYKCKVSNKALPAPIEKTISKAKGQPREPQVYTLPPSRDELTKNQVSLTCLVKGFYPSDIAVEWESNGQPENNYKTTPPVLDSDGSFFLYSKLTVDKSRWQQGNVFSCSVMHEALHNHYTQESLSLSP
light: B1 light
notes: as for B1
B8: GpH7-A5/GpH7-B3 variant S337_14T/GpL16-k0 (antibody, human IgG1, kappa)
heavy 1: not shown
heavy 2: not shown
light: B1 light
notes: as for B2
B9: GpH7-A5/GpH7-B3 variant S239_09D/GpL16-k0 (antibody, human IgG1, kappa)
heavy 1: not shown
heavy 2: not shown
light: B1 light
notes: as for B2
B10: GpH7-A5/GpH7-B3 variant K334_07I/GpL16-k0 (antibody, human IgG1, kappa)
heavy 1: not shown
heavy 2: not shown
light: B1 light
notes: as for B2
B11: GpH7-A5/GpH7-B3 variant K334_14T/GpL16-k0 (antibody, human IgG1, kappa)
heavy 1: not shown
heavy 2: not shown
light: B1 light
notes: as for B2
B12: GpH7-A5/GpH7-B3 variant K326_09D/GpL16-k0 (antibody, human IgG1, kappa)
heavy 1: not shown
heavy 2: not shown
light: B1 light
notes: as for B2
B13: GpH7-A5/GpH7-B3 variant K334_16H/GpL16-k0 (antibody, human IgG1, kappa)
heavy 1: not shown
heavy 2: not shown
light: B1 light
notes: as for B2
B14: GpH7-A5/GpH7-B3 variant H268_13S/GpL16-k0 (antibody, human IgG1, kappa)
heavy 1: not shown
heavy 2: not shown
light: B1 light
notes: as for B2
B15: GpH7-A5/GpH7-B3 variant G236_10E/GpL16-k0 (antibody, human IgG1, kappa)
heavy 1: not shown
heavy 2: not shown
light: B1 light
notes: as for B2
B16: GpH7-A5/GpH7-B3 variant I332_04F/GpL16-k0 (antibody, human IgG1, kappa)
heavy 1: not shown
heavy 2: not shown
light: B1 light
notes: as for B2
B17: GpH7-A5/GpH7-B3 variant K334_18N/GpL16-k0 (antibody, human IgG1, kappa)
heavy 1: not shown
heavy 2: not shown
light: B1 light
notes: as for B2
B18: GpH7-A5/GpH7-B3 variant T335_18N/GpL16-k0 (antibody, human IgG1, kappa)
heavy 1: not shown
heavy 2: not shown
light: B1 light
notes: as for B2
B19: GpH7-A5/GpH7-B3 variant I332_15Y/GpL16-k0 (antibody, human IgG1, kappa)
heavy 1: not shown
heavy 2: not shown
light: B1 light
notes: as for B2
B20: GpH7-A5/GpH7-B3 variant I332_09D/GpL16-k0 (antibody, human IgG1, kappa)
heavy 1: not shown
heavy 2: not shown
light: B1 light
notes: as for B2
B21: GpH7-A5/GpH7-B3 variant T335_06M/GpL16-k0 (antibody, human IgG1, kappa)
heavy 1: not shown
heavy 2: not shown
light: B1 light
notes: as for B2
B22: GpH7-A5/GpH7-B3 variant T335_04F/GpL16-k0 (antibody, human IgG1, kappa)
heavy 1: not shown
heavy 2: not shown
light: B1 light
notes: as for B2
B23: GpH7-A5/GpH7-B3 variant T335_20W/GpL16-k0 (antibody, human IgG1, kappa)
heavy 1: not shown
heavy 2: not shown
light: B1 light
notes: as for B2
B24: GpH7-B3 variant T335_20W/GpL16-k0 (antibody, human IgG1, kappa)
heavy: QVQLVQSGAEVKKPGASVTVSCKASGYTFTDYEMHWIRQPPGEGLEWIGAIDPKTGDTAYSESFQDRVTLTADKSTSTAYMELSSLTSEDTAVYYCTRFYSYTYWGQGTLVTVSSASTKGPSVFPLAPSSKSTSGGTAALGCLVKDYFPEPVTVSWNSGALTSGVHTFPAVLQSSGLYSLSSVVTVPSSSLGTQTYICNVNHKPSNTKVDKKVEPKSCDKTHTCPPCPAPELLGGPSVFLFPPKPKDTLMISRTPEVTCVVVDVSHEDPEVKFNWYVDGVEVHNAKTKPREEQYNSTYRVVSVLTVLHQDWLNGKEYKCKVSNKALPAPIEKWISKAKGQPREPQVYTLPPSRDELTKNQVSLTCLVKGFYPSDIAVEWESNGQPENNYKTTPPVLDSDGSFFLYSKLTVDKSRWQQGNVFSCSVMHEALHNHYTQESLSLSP
light: B1 light
notes: as for B1
B25: GpH7-A5/GpH7-B3 variant Y300_04F/GpL16-k0 (antibody, human IgG1, kappa)
heavy 1: not shown
heavy 2: not shown
light: B1 light
notes: as for B2
B26: GpH7-A5/GpH7-B3 variant S267_07I/GpL16-k0 (antibody, human IgG1, kappa)
heavy 1: not shown
heavy 2: not shown
light: B1 light
notes: as for B2

What was measured:
[1] = target: T1, FcγRIIa R; test: SPR (Biacore), antibody captured via antigen peptide, FcγRIIa R as analyte; homodimerized antibody
Method: (§1) Analysis of interaction between objective antibody and the FcγR was carried out using Biacore T100 (GE Healthcare). HBS-EP+ (GE Healthcare) was used as the running buffer, and the measurement temperature was set to 25° C. Chips produced by immobilizing the antigen peptide by the amine coupling method to a Series S Sencor Chip CM5 (GE Healthcare), or alternatively, chips produced by allowing preliminarily biotinylated antigen peptides to interact with and immobilize onto a Series S Sensor Chip SA (certified) (GE Healthcare) were used. Antibodies of interest were captured onto an antigen peptide-immobilized chip, and allowed to interact to each FcγR diluted with running buffer. To regenerate and repeatedly use the chip, the antibodies captured on the chip were washed off by reacting 10 mM glycine-HCl, pH 1.5.

[2] = target: T1, FcγRIIa R; test: SPR (Biacore), antibody captured via antigen peptide, FcγRIIa R as analyte; heterodimerized antibody
Method: as §1

Binder | Ho/Con_2aR [1] | He/Con_2aR [2]
B1 | 102 % of control (GpH7-B3/GpL16-k0 = 100) | –
B2 | – | 111 % of control (GpH7-A5/GpH7-B3/GpL16-k0 = 100)
B3 | 100 % of control (GpH7-B3/GpL16-k0 = 100) | –
B4 | – | 149 % of control (GpH7-A5/GpH7-B3/GpL16-k0 = 100)
B5 | – | 106 % of control (GpH7-A5/GpH7-B3/GpL16-k0 = 100)
B6 | – | 140 % of control (GpH7-A5/GpH7-B3/GpL16-k0 = 100)
B7 | 146 % of control (GpH7-B3/GpL16-k0 = 100) | –
B8 | – | 110 % of control (GpH7-A5/GpH7-B3/GpL16-k0 = 100)
B9 | – | 137 % of control (GpH7-A5/GpH7-B3/GpL16-k0 = 100)
B10 | – | 114 % of control (GpH7-A5/GpH7-B3/GpL16-k0 = 100)
B11 | – | 112 % of control (GpH7-A5/GpH7-B3/GpL16-k0 = 100)
B12 | – | 148 % of control (GpH7-A5/GpH7-B3/GpL16-k0 = 100)
B13 | – | 109 % of control (GpH7-A5/GpH7-B3/GpL16-k0 = 100)
B14 | – | 127 % of control (GpH7-A5/GpH7-B3/GpL16-k0 = 100)
B15 | – | 125 % of control (GpH7-A5/GpH7-B3/GpL16-k0 = 100)
B16 | – | 105 % of control (GpH7-A5/GpH7-B3/GpL16-k0 = 100)
B17 | – | 112 % of control (GpH7-A5/GpH7-B3/GpL16-k0 = 100)
B18 | – | 106 % of control (GpH7-A5/GpH7-B3/GpL16-k0 = 100)
B19 | – | 110 % of control (GpH7-A5/GpH7-B3/GpL16-k0 = 100)
B20 | – | 119 % of control (GpH7-A5/GpH7-B3/GpL16-k0 = 100)
B21 | – | 105 % of control (GpH7-A5/GpH7-B3/GpL16-k0 = 100)
B22 | – | 108 % of control (GpH7-A5/GpH7-B3/GpL16-k0 = 100)
B23 | – | 109 % of control (GpH7-A5/GpH7-B3/GpL16-k0 = 100)
B24 | 101 % of control (GpH7-B3/GpL16-k0 = 100) | –
B25 | – | 108 % of control (GpH7-A5/GpH7-B3/GpL16-k0 = 100)
B26 | – | 111 % of control (GpH7-A5/GpH7-B3/GpL16-k0 = 100)
